In this test the target is His-Rac2 (hexahistidine-tagged Rac2^G12V, aa 2-177) (human) (UniProt P15153). Nature of the test: SPR.

In the case of PLCβ2 (PH-C2) (domain or fragment), the Kd (in general, a measure of binding affinity in units of concentration) stood at 6 µM and the kon – broadly, a measure of how fast the partners come together – stood at 385 M⁻¹ s⁻¹.

The values are drawn from publication PMC2573054.
